For assay [1], the system named is MMP-7 in HT-29 cells. Put plainly: MMP-7 expression on IL-1α treatment. As to conditions: 1 ng/ml IL-1α, syndecan-2- and Y51A-expressing HT-29 cells. The format is cell-based, human. The method, then: Figure 6 Tyrosine 51 of the syndecan-2 extracellular domain is involved in regulating pro-MMP-7 activation. (A) HT-29 cells were transiently transfected with 1 µg of vectors encoding SDC2 or the interaction-defective syndecan-2 mutant, Y51A, and the mRNA expression levels of SDC2 and MMP-7 were evaluated by RT-PCR (top). Conditioned media (CM) were collected and proteolytic activity was measured using quenched fluorescence peptide cleavage assay. The relative activity was normalized versus the fluorescence of a vector control (bottom). Data are shown as mean ± S.D. (n = 3), **p < 0.01 versus VEC or SDC2. (B) HT-29 cells were stably transfected with vectors encoding SDC2 or Y51A. The expression levels of the target mRNAs were analyzed by RT-PCR and quantitative real-time PCR (q-PCR) of three independent experiments was performed and normalized to GAPDH expression. Data are shown as mean ± S.D. (n = 3), *p < 0.05, **p < 0.01 versus VEC or SDC2 (left). […] CM were collected and proteolytic activity was measured using quenched fluorescence peptide cleavage assay (right bottom). […] The mRNA expression levels of SDC2 and MMP-7 were evaluated with RT-PCR (left top). CM were collected from the indicated cells and immunoblotted with an anti-MMP-7 antibody (left bottom) or subjected to quenched fluorescence peptide cleavage activity assay (right). […]

The test system of assay [2] is MMP-7 in HT-29 cells. Conditions: cited from earlier work. From the text: Since syndecan-2 is known to mediate the activation of pro-MMP-7, we investigated how interrupting their interaction could affect syndecan-2-mediated MMP-7 activation. Firstly, we investigated whether the expression of syndecan-2 affects that of MMP-7.

B1: IL-1α: IL-1α was purchased from R&D Systems (protein, UniProt P01583 113-271, looked up)
Interleukin-1 alpha: SAPFSFLSNVKYNFMRIIKYEFILNDALNQSIIRANDQYLTAAALHNLDEAVKFDMGAYKSSKDDAKITVILRISKTQLYVTAQDEDQPVLLKEMPEIPKTITGSETNLLFFWETHGTKNYFTSVAHPNLFIATKQDYWVCLAGGPPSITDFQILENQA
In the case of B1, the MMP-7 expression result in the assay with MMP-7 in HT-29 cells [1] was “upregulation of MMP-7”. Besides, the “MMP-7 expression in colon cancer cells” value in the assay on MMP-7 in HT-29 cells [2] was “known to induce MMP-7 expression”.

The record behind these values is article PMC6650482, “Tyrosine 51 residue of the syndecan-2 extracellular domain is involved in the interaction with and activation of pro-matrix metalloproteinase-7” (Scientific Reports, 2019).
